Results published in publication PMC9371665.

Target: TnsB transposase of the type V-K CAST element from Scytonema hofmanni (ShCAST), full length (Scytonema hofmanni)
Test: cryo-EM structure; TnsB strand-transfer complex: strand-transfer DNA and purified TnsB mixed 1:6, 26 mM Hepes pH 7.5, 5 mM Tris-HCl pH 7.5, 20 mM KCl, 100 mM NaCl, 0.2 mM MgCl2, 15 mM MgOAc2, 37 °C 40 min, then size-exclusion chromatography; C2 symmetry imposed; 3.7 Å

stoichiometry N: 4
Substance: TnsB transposase of the type V-K CAST element from Scytonema hofmanni (ShCAST), full length (enzyme)
